Results as given in paper PMC3861103.

Legend:
[1] = target: T1, 6xHis-MBP-NHR-25 DBD (unmodified) (Caenorhabditis elegans, UniProt Q19345 1-173); test: EMSA; 1 uM DNA; 50 mM Tris pH 8.0, 150 mM NaCl, 10 mM MgCl2, 10 mM DTT, 10 mM ATP, 400 ug/ml BSA, 1 uM dsDNA, 500 nM protein (200-700 nM titration), room temperature 30 min; 4-20% TBE gel, SYBR Gold; conditions: protein: recombinant; tags: N-terminal 6xHis-MBP; blunt
T1 sequence: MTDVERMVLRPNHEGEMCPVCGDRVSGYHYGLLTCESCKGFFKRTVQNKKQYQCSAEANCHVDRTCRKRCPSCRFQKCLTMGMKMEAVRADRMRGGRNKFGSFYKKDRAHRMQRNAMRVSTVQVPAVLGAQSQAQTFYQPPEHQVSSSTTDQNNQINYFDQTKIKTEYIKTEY

[2] = target: T1, 6xHis-MBP-NHR-25 DBD (unmodified); test: EMSA; 500 nM protein, 1 uM DNA; 50 mM Tris pH 8.0, 150 mM NaCl, 10 mM MgCl2, 10 mM DTT, 10 mM ATP, 400 ug/ml BSA, 1 uM dsDNA, 500 nM protein (200-700 nM titration), room temperature 30 min; 4-20% TBE gel, SYBR Gold; conditions: protein: recombinant, tags: N-terminal 6xHis-MBP

B1: 2xNR5RE WT (dsDNA)
DNA 1: CTAAAGGGAGCCAAGGTCATAGCGGCCAGTCAAGGCCAAGGGCGACAG
DNA 2: CTGTCGCCCTTGGCCTTGACTGGCCGCTATGACCTTGGCTCCCTTTAG
B1: binds [1].

B2: CYP11A1 (dsDNA)
DNA 1: ACATTTTATCAGCTTCTGGTATGGCCTTGAGCTGGTAGTTATAATCTTGGC
DNA 2: GCCAAGATTATAACTACCAGCTCAAGGCCATACCAGAAGCTGATAAAATGT
B2: binds ([2]; blunt).

B3: MIS WT (dsDNA)
DNA 1: GATCCGCCAGGCACTGTCCCCCAAGGTCACCTTTGGTGTTGATAAGATCCC
DNA 2: TCGAGGGATCTTATCAACACCAAAGGTGACCTTGGGGGACAGTGCCTGGCG
B3: binds ([2]; 5' overhangs 4 nt on both strands).
